{
  "source": "patent US20140289906A1",
  "about": "“Compositions Having Dicamba Decarboxylase Activity and Methods of Use” (priority 2013, published 2014)",
  "experiment": "14C assay: 14CO2 capture from [14C]-carboxyl-labeled dicamba with IPTG-induced recombinant E. coli cells",
  "settings": "for Dicamba Decarboxylase Activity: IPTG-induced recombinant E. coli cells, 14CO2 from [14C]-carboxyl-labeled dicamba; for decarboxylation activity of dicamba: among the 108 sequences tested, recombinant E. coli cell assay; for Enzymatic Detection level: dicamba decarboxylation activity",
  "data": [
    {"molecule": "19 (protein, listed as Talaromyces marneffei) MATPIITLEEHYISSAIRDASETDHYAVFPSQIISKLNTLSTERLQDLDNGHVSLQVISHGPGAQPPYLCQAANDELASAISANPTRFAGFALLPIAEPQLAVQELERCITQHKFVGALIDNHTNGQFYDDQKFWPVFEKAQELDAPIYVHPSYPDEESGVAAHYRGNYDDRIAAALGAYGWGWHSDTALSILRLFAAGLFDTYPNIKIIIGHMGEMLPFQLERVIGIASRFGRSRGLREVWTQNIWVTTSGMFALAPLACLLQTMPIERVLYSVDYPFSANEKGFAFLEEIKKSGLIKEGEDWERFLYKNAQELLKVNV", "values": [
      {"measurement": "Dicamba Decarboxylase Activity", "result": "High"},
      {"measurement": "decarboxylation activity of dicamba", "result": "showed decarboxylation activity of dicamba"},
      {"measurement": "Enzymatic Detection level", "result": "High"}
    ]},
    {"molecule": "21 (protein, listed as Agrobacterium tumefaciens) MAQGKVALEEHFAIPETLQDSAGFVPGDYWKELQHRLLDIQDTRLKLMDAHGIETMILSLNAPAVQAIPDRKKAIEIARRANDVLAEECARRPDRFLAFAALPLQDPDAATQELQRCVNDLGFVGALVNGFSQEGDGQTPLYYDLPQYRPFWGEVEKLDVPFYLHPRNPLPQDSRIYDGHPWLLGPTWAFAQETAVHALRLMASGLFDAHPRLNIILGHMGEGLPYMMWRIDHRNAWVKLPPRYPAKRRFVDYFNENFHITTSGNFRTQTLIDAILEIGADRILFSTDWPFENIDHASDWFNATTIAEADRVKIGRTNARRLFKLDGR", "values": [
      {"measurement": "Dicamba Decarboxylase Activity", "result": "High"},
      {"measurement": "decarboxylation activity of dicamba", "result": "showed decarboxylation activity of dicamba"},
      {"measurement": "Enzymatic Detection level", "result": "High"}
    ]},
    {"molecule": "22 (protein, listed as Staphylococcus epidermidis) MAKSINFEEHYVVDDIQKETMKYMSSDPNGVPMQTMLKGLEQKSGFTNADDITKHDERIKFMDEHDVEMQVLSYGNGAPSNLEGERAIELCQQANDTLAKYVNEHPDRFVGFATLPINEPQAAVEEFKRCIKELGFKGALIMGHPKNGFLDQDQYDDLFATAEALNVPIYLHPSPVQSDVYQAYYKGNYSDVTAATFACFGYGWHVDVGIHAIHLVLSGVFDRHPNLNMIIGHWGEFVPFFLERMDDILFADHLEHPISYYFKNNFYITPSGMLTKPQFDLVKAEVGVDRILYSADYPYVEPDKLGTFLDELDLTEEEKEKISYKNGAKLLGLEK", "values": [
      {"measurement": "Dicamba Decarboxylase Activity", "result": "High"},
      {"measurement": "decarboxylation activity of dicamba", "result": "showed decarboxylation activity of dicamba"},
      {"measurement": "Enzymatic Detection level", "result": "High"}
    ]},
    {"molecule": "26 (protein, listed as Variovorax paradoxus) MATHMAPMKNKIALEEHFAIDLTIADSQVYARPEVWQGLKSNLLDFEQQRLEKMDEWGTEFSILSLNSPAVQGIPDAKRAIEVAQRANDVLAEQVKRHPTRFGGFAALPMQDPEASARELERCVNQLGFHGFLVNGFSQVGDENIVVYYDDARFNDFWTAAAALKKPFYMHPRDPLLAREPIYDGAHWLTGPTWAFAMETAIHALRLMSSGMFDRHPALQMILGHFGEGIPFNIWRVDHILRKGRRGMPCDKEIGEYLRSNVHITTSGNFRTPTLLSTMLEVGSDRIMYSVDYPFEKHEDAARWFDTCEISENDRQKIGRDNARKLFGLK", "values": [
      {"measurement": "Dicamba Decarboxylase Activity", "result": "High"},
      {"measurement": "decarboxylation activity of dicamba", "result": "showed decarboxylation activity of dicamba"},
      {"measurement": "Enzymatic Detection level", "result": "High"}
    ]},
    {"molecule": "37 (protein, listed as Burkholderia gladioli) MATFSNVKKIALEEHFAIAETIEDSAGFVPPDDWVELRGRLLDIQERRLAEMDRAGIELMVLSLNAPAVQAIRDPRQAVELARRANDYLAEQVARRPDRFRAFAALPMQAPEQAIREAERCVRELGFVGALVNGFSEAEDGAELYYDLPRYRPFWAALEALEVPFYLHPRNPLAGRAPIYDGHSWLMGPTWAFGQETAVHALRLMGSGLFDAHPRLQIILGHMGEGLPYSMWRVDNRNAWVSAKPNYPAEKPIAEYFRNNFWLTTSGNFRTQTLIDAMLEIGSDRILFSADWPFENMDHAADWFDHASISENDRIKIGRGNAERLLKLGR", "values": [
      {"measurement": "Dicamba Decarboxylase Activity", "result": "Low"},
      {"measurement": "Enzymatic Detection level", "result": "Low"}
    ]},
    {"molecule": "38 (protein, listed as Variovorax paradoxus) MAQGKIGLEEHFAIPQTLQDSAGFVPGVYWKELSSRLLDIHDGRLRQMDEHGMEMMILSLNAPAVQAVADPVKAYELAVRANDFLAEQVAKRPDRFQAFAALPMQDPEKATQELERCMSVLGFRGALVNGFSQVGTPDNVAYYDAPQYAPFWAAAERLDAPFYLHPRNPIASWAQIYEGHPWLLGPTWAFAQETAVHALRLMASGLFDRHPGLKIILGHLGEGLPYNMWRVDHRNAWVKAPKGYPAKRKLCEYFQENFYLTTSGNFRTQTLIDAMLEVGSDRILFSTDWPFENIDHASNWFNDTSISEADRKKIGRTNAMSLFKLA", "values": [
      {"measurement": "Dicamba Decarboxylase Activity", "result": "Low"},
      {"measurement": "Enzymatic Detection level", "result": "Low"}
    ]},
    {"molecule": "39 (protein, listed as Agrobacterium fabrum) MAQGKVALEEHFAIPETLQDSAGFVPGDCWTELQHRLLDIQDTRLKLMDAHGIETMILSLNAPAVQAIPDKTKAIEIARRANDALAEECAKRPDRFLAFAALPLQDPDAATQELRRCVNDLGFVGALVNGFSQEGDGQTPLYYDLPQYRPFWGEVEKLDVPFYLHPRNPLPQDSRIYDGHPWLLGPTWAFAQETAVHALRLMASGLFDEHPRLDIILGHMGEGLPYMMWRIDHRNAWVKLPPRYPAKRRFVDYFNENFHITTSGNFRTQTLIDAILEIGADRILFSTDWPFENIDHASDWFHATSIAEADRVKIGRTNARRLFKLDGR", "values": [
      {"measurement": "Dicamba Decarboxylase Activity", "result": "No"},
      {"measurement": "Enzymatic Detection level", "result": "No"}
    ]},
    {"molecule": "40 (protein, listed as Rhodococcus jostii) MAQGKIALEEHFAIPETLNDSAGFVPGTYWDELQARLLDIQDVRLKLMDEHNIETMILSLNAPAVQAIPERERAIDIARRANDVLAEECAKRPDRFRGFAALPLQDPDAAAEELRRCVTELGFVGALVNGFSQSATVDGGSTPLYYDLPRYRPFWAEVERLDVPFYLHPRNPLNQDARIYEGHPWLLGPTWAFAQETAVHALRLMASGLFDEHPGLRIVLGHMGEGIPAMLWRIDHRNAWVDVPPAYPAKRRMVDYFTENFFVTTSGNFRTQTLIDLLLELGSERVMFSTDWPFENINHAAEWFDAASISEADRLKIGRTNAATLFKLDR", "values": [
      {"measurement": "Dicamba Decarboxylase Activity", "result": "Low"},
      {"measurement": "Enzymatic Detection level", "result": "Low"}
    ]},
    {"molecule": "3 (protein, listed as Lactobacillus plantarum) MAKLITVEEHFESAAVTAAMRQAVGNAVLPAVSPALRQYMRDNLPSPAIMQDTQHERLAFMAQYGIDMQVLSYGNSSPQNLSPEQAVPLSQLANDELAKAVVAHPDRYAGLAVLPVGDPQAAVAELNRAVTTLGLRGVLLKGNYQNKFFDEPFFLPIFEAAAALDVPVYFHPSFIPQAVTSHYFESNQWSDVVTGILSSAGYGWHMDVGIQVIRMIASGIFDKLPGLKLISGHWGELVPLFLERLDDELTTYTDLQYPFSTYYRHNVYVTPSGILSAPQLQFMLAEMGADHLMYSIDYPYKQPETSGSFLDIADLTDEQRAQIAFGTATTLFKL", "values": [
      {"measurement": "Dicamba Decarboxylase Activity", "result": "Low"},
      {"measurement": "Enzymatic Detection level", "result": "Low"}
    ]},
    {"molecule": "42 (protein, Agrobacterium radiobacter) MAQGKIALEEHFAIPDTLQDSAGFVPGDYWKELSARLLDIHEQRLMQMDAYGIEKMILSLNAPAVQAIPDKAKALEISRRANDFLAEQCARNPDRFLGFAALPLQDPDAATAELQRCVKTLGFVGALVNGFSQEGDGVTPLYYDLPQYRGFWAEVEKLAVPFYLHPRNPLPQDSRIYAGHPWLMGPTWAFAQETAVHALRLVGSGLFDDHPALRIILGHMGEGLPYMMWRIDNRNAWVKVAPNYPAKRRIADYFNENFYITTSGNFRTQSLVDAMLEIGADRILFSTDWPFENIDHASDWFDTATISEADRLKIGRTNAATLFNLES", "values": [
      {"measurement": "Dicamba Decarboxylase Activity", "result": "Low"},
      {"measurement": "Enzymatic Detection level", "result": "Low"}
    ]}
  ]
}
